Assay results: patent US6677299B2, “Method to increase cerebral blood flow in amyloid angiopathy” (The Trustee of Columbia University in the city of New York, priority 2000, dated 2004)

Biological target: T1, RAGE (Mus musculus, UniProt Q62151)
T1 construct: The first set of studies employed synthetic Aβ infused in to wild-type mice; from tissue; host or cells: brain vasculature (blood-brain barrier) of living wild-type mice
Test: Brain perfusion model: Aβ binding to brain capillaries and transport across the BBB
Assay type: in vivo, mice
Experimental: FIGS. 1A-1F. […] FIG. 1A and bFIG.
Brain perfusion model. […] Details of the extracorporeal perfusion circuit were as reported elsewhere. ^22,23,38,39 At the start of the perfusion, the contralateral common carotid artery was ligated, and both jugular veins severed to allow free drainage of the perfusate. Brains were perfused with oxygenated perfusion medium at a flow rate of 1 ml/min by peristalitic pump. […] Perfusion pressure and animal's own arterial blood pressure were continuously monitored. Blood gasses pO2, pCO2 and pH and electrolytes in the arterial inflow and in animal's own blood were monitored.
Injection of radioisotopes for transport studies. […] When the effects of different unlabeled molecular reagents were tested, those were injected 5 min prior to tracers injection and than simultaneously with radiolabled ligands. At predetermined times within 10 min mice were sacrificed by decapitation, and brain tissue prepared for radioactivity analysis. TCA and HPLC analysis as we described were used to determine molecular forms of uptake of radiolabeled Aβ by the BBB.^22,23 Capillary-depletion technique was used to separate micravascular pellet from capillary-depleted brain to quantify in vivo binding to microvessels vs. transport into brain parenchyma, as we reported.^22, 23
Mathematical modeling for transport studies. […] The rate of entry (KIN) is computed from eq. 1: d[CIN (TEST-MOLEUCLE)−CIN (ALBUMIN)]/dt=KINCPL−KOUT[CIN (TEST-MOLECULE)−CIN (ALBUMIN)], where KOUT is exit or efflux transfer coefficient, and R is the steady state or equilibrium ratio. Eq. 1 is integrated to give [CIN (TEST-MOLECULE)−CIN (ALBUMIN)]/CPL=R (1−e^−KOUT T) (eq. 2). R is the steady state ratio, and the ratio KIN/KOUT at infinite time, and T is infusion time. Numerical values for KOUT may be obtained from the slope of the plot of ln (R−[CIN (TEST-MOLECULE)−CIN (ALBUMIN)]/CPL) (eq. 3) against T, using the equation KOUT=−ln(R−[CIN (TEST-MOLECULE)−CIN (ALBUMIN)]/CPL)/T (eq. 4). Finally, the value for KIN is derived by substituting the number for KOUT in: KIN=R KOUT (eq. 5). When tracer uptake remains linear over studied period of time, the exist constant approaches zero, and KIN=d[CIN (TEST-MOLEUCLE)−CIN (ALBUMIN)]/dt CPL. […] Advanced graphics software and the MLAB mathematical modeling system (as above) will be used to obtain graphic plots and compute transfer coefficients.

[1] = circulating 125I-labeled peptide, mice and guinea pigs
[2] = reagent in arterial inflow, 125I-Aβ 4 nM, 10 min

T1 sequence (Q62151 23-402): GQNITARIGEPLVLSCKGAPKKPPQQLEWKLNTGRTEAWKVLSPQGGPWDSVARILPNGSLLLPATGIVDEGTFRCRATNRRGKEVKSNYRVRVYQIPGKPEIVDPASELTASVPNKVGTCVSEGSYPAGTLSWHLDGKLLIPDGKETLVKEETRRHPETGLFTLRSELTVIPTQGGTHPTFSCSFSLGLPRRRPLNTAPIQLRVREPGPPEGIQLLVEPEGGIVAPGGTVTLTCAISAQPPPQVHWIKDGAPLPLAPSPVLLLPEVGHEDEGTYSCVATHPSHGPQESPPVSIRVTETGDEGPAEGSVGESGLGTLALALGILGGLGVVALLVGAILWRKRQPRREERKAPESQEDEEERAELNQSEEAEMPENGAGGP

Aβ1-42: synthetic amyloid-β peptide 1-42, human form
binding of the peptide to brain microvessels [1]: absence of its significant binding | transport of the peptide across the BBB [1]: somewhat slower, but significant

fucoidan
effect on Aβ transport into brain (BBB transport of Aβ) [2]: did not affect | effect on binding of Aβ to brain microvessels [2]: did not affect
